From paper PMC3942423 (Nature chemical biology, 2009)

Key:
[1] = substrate: O=[N+]([O-])c1ccc(O[C@H]2O[C@H](CO)[C@@H](O)[C@H](O)[C@@H]2O)cc1; assay: 4NP-Man hydrolysis kinetics; format: biochemical, Bacteroides thetaiotaomicron; conditions: other: substrate 4NP-Man
[2] = substrate: OC[C@H]1O[C@H](O[C@H]2[C@@H](O)[C@H](O)[C@@H](CO)O[C@@H]2O)[C@@H](O)[C@@H](O)[C@@H]1O; assay: mannobiose hydrolysis kinetics; format: biochemical, Bacteroides thetaiotaomicron; conditions: other: most active mannobiose substrate

B1: Bt3784 (Bacteroides thetaiotaomicron VPI-5482) (protein)
chain: MKTHFSFKHLLFIGGAVLYSMQISAVKNPVDYVSTLVGTQSKFELSTGNTYPATALPWGMNFWTPQTGKMGDGWAYTYNADKIRGFKQTHQPSPWMNDYGQFSIMPITGGLVFDQDQRASWFSHKAEVAKPYYYKVYLADHDVTTELVPTERAAMFRFTYPETKNAYVVIDAFDKGSYVKVIPEENKIIGYSTKNSGGVPENFKNYFVIQFDKPFTFTSGVKENNILPNETEVQGNHTGAIIGFATQKGEIVHARVASSFISYEQAELNLKELGKDSFDQLVTKGKDIWNREMSKVDVEDDNIDNLRTFYSCLYRSMLFPRSFYEIDAKGQVVHYSPYNGKVLPGYMFTDTGFWDTFRCLFPFLNLMYPSMNQKMQEGLVNAYLESGFLPEWASPGHRDCMVGNNSASVVADAYIKGLRGYDIETLWEALKHDANAHLRGTASGRLAYDAYNKLGYVPNNIGIGQNVARTLEYAYNDWTIYTLGKKLGKPASEIDIFKQRALNYKNVYHPKRKLMVGKDDKGVFNPKFDAVDWSGEFCEGNSWHWSFCVFHDPQGLIDLMGGKKEFNNMMDSVFVIPGKQGMESRGMIHEMREMQVMNMGQYAHGNQPIQHMVYLYNYSGEPWKAQHWVREIMDKLYTAGPDGYCGDEDNGQTSAWYVFSALGFYPVCPGTDQYILGTPLFKSAKLHLENGKTVTIKASNNNTDNRYVKDMKVNGKAFTRNYLTHDQLLKGANIQYQMSPTPNKQRGTTEKDIPYSLSFE
kcat ([1]; enzyme Bt3784, pH 7.0): 0.08 ± 0.0065 s⁻¹
kcat/Km ([1]; enzyme Bt3784, pH 7.0): 11.5 M⁻¹ s⁻¹
kcat ([2]; enzyme Bt3784, pH 7.0): 0.45 ± 0.0917 s⁻¹
kcat/Km ([2]; enzyme Bt3784, pH 7.0): 183 M⁻¹ s⁻¹

B2: Bt3962 (Bacteroides thetaiotaomicron VPI-5482) (protein)
chain: QKQPVDYVNPLMGTDSKISLSNGNTYPAIALPWGMNFWMPQTGKMGDGWAYTYASDKIRGFKQTHQPSPWINDYGQFSIMPMTKQLKIDQDSRASWFSHKAEKATPYYYSVYLSEYNMTTEIAPTERCAYFRFTFPEASDAYVVVDAFDRGSYVKVIPEENKIVGYTTRNSGGVPQNFRNYFVIEFDKPFTFNKVWADYHLVETHLELQSNHVGAAIGFSTKKGEQVHAKVASSFISPEQAELNLKEIGNKTFEQTKEAGRKAWNDVLGRIKVEDDDENRMRTFYSCLYRSVLFPRMFHEVNAKGETVHYSPYNGEIRPGYMFTDTGFWDTFRCLFPFVNLIYPSMGEKMQEGLLNTYLESGFFPEWASPGHRGCMVGNNSASVVADAFMKNVTKADAEKMYEGLLKGANSVHPRVSTTGRRGYEYYNKLGYVPYDVKINENAARTLEYAYDDWCIYRMGEKLGRPAEELELYKSRSQNYRNLFDPETKLMRGKNADGTFQTPFNPFKWGDAFTEGNSWHYTWSVFHDVQGLADLMGGRKMFVSMLDSVFNLPPIFDDSYYGGVIHEIREMEIANMGNYAHGNQPIQHMIYLYNYAGEPWKAQYWLREVMNRLYFATPDGYCGDEDNGQTSAWYVFTALGFYPVCPGSNEYVMGAPYFKKATITLENGKKLEISAPKNSDANRYIRSLNYNGKNYTKNYLNHFDLLKGGRLVFDMDNKPNKGRGINESDFPYSFSRDNK
Km ([1]; enzyme Bt3962, pH 7.0): 5000 ± 840 µM
kcat ([1]; enzyme Bt3962, pH 7.0): 0.283 ± 0.0267 s⁻¹
kcat/Km ([1]; enzyme Bt3962, pH 7.0): 56.7 M⁻¹ s⁻¹
Km ([2]; enzyme Bt3962, pH 7.0): 430 ± 52 µM
kcat ([2]; enzyme Bt3962, pH 7.0): 13.7 s⁻¹
kcat/Km ([2]; enzyme Bt3962, pH 7.0): 31700 M⁻¹ s⁻¹

B3: Bt3990 (Bacteroides thetaiotaomicron VPI-5482) (protein)
chain: KDWTQYVNPLMGSQSTFELSTGNTYPAIARPWGMNFWTPQTGKMGDGWQYTYTANKIRGFKQTHQPSPWINDYGQFSIMPIVGQPVFDEEKRASWFAHKGEVATPYYYKVYLAEHDIVTEMTPTERAVLFRFTFPENDHSYVVVDAFDKGSYIKIIPEENKIIGYTTRNSGGVPENFKNYFIIEFDKPFTYKATVENGNLQENVAEQTTDHAGAIIGFKTRKGEQVNARIASSFISFEQAAANMNELGKDNIEQLAQKGKDAWNQVLGKIEVEGGNLDQYRTFYSCLYRSLLFPRKFYELDANGQPIHYSPYNGQVLPGYMFTDTGFWDTFRCLFPLLNLMYPSVNKEMQEGLINTYLESGFFPEWASPGHRGCMVGNNSASILVDAYMKGVKVDDIKTLYEGLIHGTENVHPEVSSTGRLGYEYYNKLGYVPYDVKINENAARTLEYAYDDWCIYRLAKELKRPKKEISLFAKRAMNYKNLFDKESKLMRGRNEDGTFQSPFSPLKWGDAFTEGNSWHYTWSVFHDPQGLIDLMGGKEMFVTMMDSVFAVPPIFDDSYYGQVIHEIREMTVMNMGNYAHGNQPIQHMIYLYDYAGQPWKAQYWLRQVMDRMYTPGPDGYCGDEDNGQTSAWYVFSALGFYPVCPGTDEYVMGTPLFKKATLHFENGNSLVIDAPNNSTENFYIDSMSFNGADHTKNYLRHEDLFKGGTIKVDMSNRPNLNRGTKEEDMPYSFSKE
Km ([1]; enzyme Bt3990, pH 7.0): 4200 ± 420 µM
kcat ([1]; enzyme Bt3990, pH 7.0): 0.0933 ± 0.00467 s⁻¹
kcat/Km ([1]; enzyme Bt3990, pH 7.0): 21.7 M⁻¹ s⁻¹
Km ([2]; enzyme Bt3990, pH 7.0): 760 ± 110 µM
kcat ([2]; enzyme Bt3990, pH 7.0): 86.7 ± 5 s⁻¹
kcat/Km ([2]; enzyme Bt3990, pH 7.0): 113000 M⁻¹ s⁻¹

B4: Bt3994 (Bacteroides thetaiotaomicron VPI-5482) (protein)
chain: EIDYTSYVNPFIGTDFTGNTYPGAQAPFGMVQLSPDNGLPGWDRISGYFYPDSTIAGFSHTHLSGTGAGDLYDISFMPVTLPYKEAEAPLGIYSKFSHDEESAYAGYYQVRLKDYHINVELTATERCGIQRYTFPKAEAAIFLNLKKAMNWDFTNDSHIEVVDSVTIQGYRYSDGWARDQRIYFRTRFSKPFDKVELDTTAIIKDKQHIGTAVIARFDFHTEEGEQILVNTAISGVSMEGAAKNLQAEVPENDFDKYLAETKANWNRQLGKIEVEGDNQDDKVNFYTALYHSMIAPTIYSDVDGAYYGPDKKVHQSDGWVNYSTFSLWDTYRAAHPLFTYTEPERVNDMVKSFIAFFEQNGRLPVWNFYGSETDMMIGYHAVPVIVDAYLKGIGNFDAEKALAACVATANLDNYRGIGLYKQLGYIPYNVTDHYNAENWSLSKTLEYAFDDYCIAEMANKMGKKEIADEFYKRSQNYKNVYNPATSFMQPRDDKGNFIKDFKADEYTPHICESNGWQYFWSVQHDIDGLIDLTGGKNRFAEKLDSMFTYHPAADEELPIFSTGMIGQYAHGNEPSHHVIYLFNAVGQQNLTQKYVAKVMNELYKNEPAGLCGNEDCGQMSAWYVFSAMGFYPVNPVSGKYEIGTPLFPEMKLHLANGKTFTVLAPKVSKENIYIQSIKVDGQPYNKTYLTHEQIMSGTTVEFEMGNTPLVEVEFEEQTQ
Km ([1]; enzyme Bt3994, pH 7.0): 3700 ± 430 µM
kcat ([1]; enzyme Bt3994, pH 7.0): 1.57 ± 0.0933 s⁻¹
kcat/Km ([1]; enzyme Bt3994, pH 7.0): 433 M⁻¹ s⁻¹

B5: Bt4092 (Bacteroides thetaiotaomicron VPI-5482) (protein)
chain: QLKDLVQYVNTLQGTDSNFGLSYGNTYPTTGMPYGMHMWSAQTGKNGDGFKYMYAVDKIRAFSQSHQCSPWVSDYAVYSFMPMVGELVVNQDARATKFSHDNEIAKPHYYKVTFDNGITTEMAPTTRGVHLRFSYPTTGDAYLVLDGYTDMSEIKIDPAKRQISGWVNNQRFVNDSKSFRNYFVVQFDKPFEDYGVWENQKDEVFPQKLDGAGKGYGAFIKFKKGSKVQAKAASSYISAEQALITLNKELGKDKNLEVTKARGQKTWNEVLNRIVVEGCTDEQMKTFYSCLFRANLFSRKFYERKENGEPYYYSPYNGKIYDGYMYTDNGFWDTFRSQFPLTNILHPTMQGRYMNALLAAQEQCGWLPSWSSPGETGGMLGNHSISLLADAWAKGIRDFDPEKALKAYAHEAMNKGPWGGANGRGFWKEYFQLGYVPYPESMGSSAQTMEYAYDDFCGYQLAKMVGNKHYQEVFARQMYNYKNVFDKSIGFMRGKGVDGKWQEPFDPLEWGGPFCEGNAWHYTWSVFHDVQGLIDLFGSDEKFTTKIDSVFTIPNIIKPGTYGGVIHEMKEMELANMGQYAHGNQPIQHMPYLYCYAGQPWKTQYWVRQIVERLYNSTEKGYPGDEDQGGMSSWYILSSLGIYAVCPGTDEYVIGSPLFKKATITMENGNKFVIEAPENSKENLYIQSATLNGRLLDKNYIHYDDIAEGGVLKFEMGSQPNKERCTSKYAAPFSLSKE
Km ([2]; enzyme Bt4092, pH 7.0): 2000 ± 450 µM
kcat ([2]; enzyme Bt4092, pH 7.0): 1.83 s⁻¹
kcat/Km ([2]; enzyme Bt4092, pH 7.0): 900 M⁻¹ s⁻¹

B6: Bt1032 (Bacteroides thetaiotaomicron VPI-5482) (protein)
chain: GEGKAPPMDKEKSLLIDYVDPFIGTTNFGTTNPGAVCPNGMMSVVPFNVMGSADNTYDKDARWWSTPYEHTNCFFTGYSHVNLSGVGCPELGSLLLMPTTGELNVDYKEYGSKYKDEQASPGYYSNYLTKYNIKTEVSATPRTGIARFTFPKGESHILLNLGEGLTNESGAMLRRVSDSEIEGMKLLGTFCYNPQAVFPIYFVMRVNKVPATTGYWKKQRPMTGVEAEWDRDQGKYKLYTRYGKEIAGDDVGAYFTFETEEGEQVEVQMGVSFVSIENARLNLDKEQSGKNFEQVLSDARAQWNDDLSRITVEGGTDAQKTVFYTALYHLLIHPNVLQDVNGEYPAMESDQILTTKGTRYTVFSLWDTYRNVHQLLTLVYPERQMEMVRTMLDMYREHGWFPKWELYGRETLTMEGDPSIPVIVDTWMKGLRDFDVDLAYEAMYKSATLPGAENLMRPDNDDYMSKGYVPLREQYDNSVSHALEYYIADFALSRFADALGKKKDAEMFYKRSLGYKHYYSKEFGTFRPILPDGTFYSPFNPRQGENFEPNPGFHEGNSWNYTFYVPHDVYGLAKLMGGKKPFVNKLQMVFDEGLYDPANEPDIAYAHLFSYFKGEEWRTQKETQRLLDKYFTTKPDGIPGNDDTGTMSAWAIFNMIGFYPDCPGLPEYALTTPVFNKVTIRLDPKWYKENELVIESNRTGSETLYINKVLLDGKKFNKYRITHDELVHGKRLIFDLK
Km ([1]; enzyme Bt1032, pH 7.0): 1700 ± 360 µM
kcat ([1]; enzyme Bt1032, pH 7.0): 0.006 ± 0.000633 s⁻¹
kcat/Km ([1]; enzyme Bt1032, pH 7.0): 3.5 M⁻¹ s⁻¹

B7: Bt2199 (Bacteroides thetaiotaomicron VPI-5482) (protein)
chain: MVTRLFFLSICFPFLLTSCQQSKKTVEFVDYVNPLMGTESTFAFSHGNTYPAVAVPWGMNFWSPQTGENGSGWMYTYTDSLMRGFRQTHQPSPWINDYGTFSIMPLAGELKMSHKERLVPFSHQQEKATPYNYSVTFNNGLQTSLSATSRGAVFEVSFPEKEDQYVVVDAYNGGSSITIEPEKRLVKGATRYNNGGVPDNFANYFMMEFSHPVIEYGTYNGDTLLHHQTDVAADYTCAYLKFDVPAGEKLTIRTASSFISPEQAAINFNREVADADVQLISGKAREQWNNYLGRVEAEGGTDEQLRTFYSCLYRTLLFPREFYEFDSQGNPVYYSPYDGNVHDGYMYTDNGFWDTFRAVHPLFTLLYPEVSERVTQSIINAYNESGFMPEWASPGHRGCMIGNNSVSLLVDAWMKGIQTVDAEKALEAMIHQTQARHAEIASVGRDGFEYYDKLGYVPYPEVPEATAKTLEYAYADWCIARFAESLGKQDIADQYYQKAPNYRNLYYPEHGFMWTKDAKGNWRDRFDATEWGGPFTEGSSWHWTWSVFHDPEGLSELMGGHEPMIARLDSMFVAPNTYNYGTYGFVIHEIAEMVALNMGQYAHGNQPVQHAIYLYDYIGQPWKTQYHLRNVMDKLYNSGSKGYCGDEDNGQTSAWYVFSAMGFYPVCPGMPEYAIGSPLFKKVTLHLPEGKNFVVSAADNAADRPYIRKALLNGQEFTRNYLTHDELKQGGELNLSMDSVPNQQRGTQPADFPYSYSK
kcat ([1]; enzyme Bt2199, pH 7.0): 0.105 ± 0.00483 s⁻¹
kcat/Km ([1]; enzyme Bt2199, pH 7.0): 14 M⁻¹ s⁻¹
kcat ([2]; enzyme Bt2199, pH 7.0): 40 ± 2.33 s⁻¹
kcat/Km ([2]; enzyme Bt2199, pH 7.0): 60000 M⁻¹ s⁻¹
